From publication PMC12285911 (Nature Structural & Molecular Biology, 2025)
Each block holds one binder with its values, some of them ahead of it.

Legend:
Settings in all cases: both partners purified
[1] = molecular target: T1, ^FAMFAT10 (GG–FAT10 N-terminally labeled with fluorescein amidite by sortase) (human, 5-FAM on the N terminus (5-FAM conjugated to the N terminus of the peptide …, attached by sortase)); assay: fluorescence polarisation; titration: ^FAMFAT10 (100 nM) incubated with varying NUB1 concentrations on ice (45 min by the legends, 30 min by the methods), polarisation read in a 384-well plate preheated to 30 °C; the Kd is called approximate (some aggregation at higher NUB1 concentrations)
T1 construct: GG added to the N terminus of FAT10 for sortase labeling (scar left after Smt3 cleavage); also called GG–FAT10 (labeled); source: E. coli BL21*, purified; sortase-labeled, enriched on Ni-NTA, gel filtration; not shown: His, N-terminal, cleaved; Smt3, N-terminal, cleaved
T1 chain: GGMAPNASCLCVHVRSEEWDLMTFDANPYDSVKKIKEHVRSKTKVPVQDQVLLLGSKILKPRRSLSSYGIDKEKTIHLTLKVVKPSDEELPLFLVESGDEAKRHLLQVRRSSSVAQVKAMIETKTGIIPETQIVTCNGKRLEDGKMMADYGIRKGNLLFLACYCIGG

[2] = molecular target: T1, ^FAMFAT10 (GG–FAT10 N-terminally …); assay: fluorescence polarisation; kinetics: ^FAMFAT10 (20 nM) mixed with NUB1 (250–4,000 nM), polarisation over time, single exponentials, kobs against NUB1 concentration, kon by linear regression; 30 °C
[3] = molecular target: T2, FAT10 (human leukocyte antigen-F-adjacent transcript 10), wild type, full length, unlabeled (human); assay: SEC; NUB1 (50 µM) incubated with FAT10 (75 µM) for 30 min on ice, Superdex 200 Increase 10/300; the single complex peak was pooled and run on SEC–MALS (60 mM HEPES pH 7.4, 50 mM NaCl, 50 mM KCl, 5% glycerol, 10 mM MgCl2, 0.5 mM TCEP)
T2 construct: also called wild-type FAT10; source: E. coli BL21*, purified (Ni-NTA, His–ULP1 cleavage, HiTrap SP, gel filtration); not shown: His, N-terminal, cleaved; Smt3, N-terminal, cleaved
T2 chain: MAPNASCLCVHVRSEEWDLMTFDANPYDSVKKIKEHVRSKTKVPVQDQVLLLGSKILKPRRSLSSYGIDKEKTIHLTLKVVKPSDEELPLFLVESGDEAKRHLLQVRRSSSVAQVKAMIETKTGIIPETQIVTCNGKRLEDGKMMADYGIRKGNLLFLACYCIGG

[4] = molecular target: T3, Rpn1 (proteasomal receptor subunit of the 19S regulatory particle) (human (endogenous in HEK293), UniProt Q13200 1-908); assay: cryo-EM structure; hs26S proteasome mixed with preincubated (20 min) FAT10–Eos + NUB1 complex in 20 mM HEPES pH 7.4, 25 mM NaCl, 25 mM KCl, 5 mM MgCl2, 2 mM ATP, for 30 s or 60 s before plunge-freezing; nonprocessing and processing states
T3 construct: Rpn1, subunit of the human 26S proteasome; stood in the experiment as a subunit of the whole hs26S proteasome; also called proteasomal Rpn1 subunit; source: endogenous, within the hs26S proteasome purified from HEK293 cells
T3 sequence (Q13200 whole entry): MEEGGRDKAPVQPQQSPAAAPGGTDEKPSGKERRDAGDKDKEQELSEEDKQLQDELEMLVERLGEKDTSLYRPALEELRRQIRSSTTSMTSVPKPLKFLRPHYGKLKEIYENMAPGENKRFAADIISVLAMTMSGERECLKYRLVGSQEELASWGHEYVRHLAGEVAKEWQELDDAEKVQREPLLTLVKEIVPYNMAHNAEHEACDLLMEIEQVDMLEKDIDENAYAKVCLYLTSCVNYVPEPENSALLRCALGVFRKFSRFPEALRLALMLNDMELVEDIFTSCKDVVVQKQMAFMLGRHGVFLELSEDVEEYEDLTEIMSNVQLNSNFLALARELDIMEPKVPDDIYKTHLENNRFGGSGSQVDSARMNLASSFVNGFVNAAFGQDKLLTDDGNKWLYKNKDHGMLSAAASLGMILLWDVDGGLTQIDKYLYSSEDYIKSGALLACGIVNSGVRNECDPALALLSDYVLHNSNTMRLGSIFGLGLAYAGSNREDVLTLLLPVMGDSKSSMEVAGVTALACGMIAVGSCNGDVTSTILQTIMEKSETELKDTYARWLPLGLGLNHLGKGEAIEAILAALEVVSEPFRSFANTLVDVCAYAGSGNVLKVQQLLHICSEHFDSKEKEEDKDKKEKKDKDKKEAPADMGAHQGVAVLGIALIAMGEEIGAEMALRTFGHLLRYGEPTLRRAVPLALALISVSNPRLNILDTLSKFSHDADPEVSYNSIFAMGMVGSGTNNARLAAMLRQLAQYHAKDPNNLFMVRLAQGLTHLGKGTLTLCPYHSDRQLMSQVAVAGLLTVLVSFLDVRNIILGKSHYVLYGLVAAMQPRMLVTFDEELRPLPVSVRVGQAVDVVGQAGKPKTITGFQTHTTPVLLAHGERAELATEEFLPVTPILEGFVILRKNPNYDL

binding result [1]: binds
B1: NUB1^Δ1–175 (domain or fragment)
chain: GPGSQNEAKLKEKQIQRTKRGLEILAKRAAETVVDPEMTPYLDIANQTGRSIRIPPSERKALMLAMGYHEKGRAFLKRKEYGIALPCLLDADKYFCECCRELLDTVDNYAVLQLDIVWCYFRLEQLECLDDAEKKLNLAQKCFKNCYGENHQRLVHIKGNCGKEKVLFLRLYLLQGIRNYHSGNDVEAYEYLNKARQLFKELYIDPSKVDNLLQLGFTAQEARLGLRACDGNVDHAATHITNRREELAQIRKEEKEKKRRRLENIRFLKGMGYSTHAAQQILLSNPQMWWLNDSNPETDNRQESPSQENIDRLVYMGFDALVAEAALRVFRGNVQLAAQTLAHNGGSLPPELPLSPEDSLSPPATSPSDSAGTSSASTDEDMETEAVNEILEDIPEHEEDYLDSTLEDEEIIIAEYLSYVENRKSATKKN
notes: overhang left at the N terminus after removal of GST by precision (3C) protease; also called linker-trap domain; source: E. coli BL21*, purified (GSH resin, GST–3C protease cleavage, gel filtration); not shown: GST, N-terminal, cleaved

kon [2]: 1600 ± 3000 M⁻¹ s⁻¹
Kd [1]: 176 ± 6.8 nM
stoichiometry N [3]: 1
binding result [4]: binds
B2: NUB1 (NEDD8 ultimate buster 1), wild type, full length (natural protein)
chain: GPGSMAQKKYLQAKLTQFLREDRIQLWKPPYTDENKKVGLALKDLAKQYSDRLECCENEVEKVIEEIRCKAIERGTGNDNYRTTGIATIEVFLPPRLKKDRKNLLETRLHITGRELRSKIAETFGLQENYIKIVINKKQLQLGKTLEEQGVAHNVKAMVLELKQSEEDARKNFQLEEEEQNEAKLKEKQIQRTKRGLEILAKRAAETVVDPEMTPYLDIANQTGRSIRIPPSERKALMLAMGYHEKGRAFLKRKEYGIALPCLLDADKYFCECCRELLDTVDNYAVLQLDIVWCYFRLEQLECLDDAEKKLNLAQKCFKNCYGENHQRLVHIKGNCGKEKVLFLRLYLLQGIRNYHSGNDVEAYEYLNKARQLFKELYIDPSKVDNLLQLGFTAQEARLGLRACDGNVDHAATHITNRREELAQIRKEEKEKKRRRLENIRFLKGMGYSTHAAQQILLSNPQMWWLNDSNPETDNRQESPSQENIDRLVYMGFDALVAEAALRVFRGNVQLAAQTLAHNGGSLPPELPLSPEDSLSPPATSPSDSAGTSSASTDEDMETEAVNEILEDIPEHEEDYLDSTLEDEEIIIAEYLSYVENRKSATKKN
notes: overhang left at the N terminus after removal of GST by precision (3C) protease; the shorter isoform, not NUB1L; codon-optimised synthetic gene in pGEX-6P-1; also called wild-type NUB1; source: E. coli BL21*, purified (GSH resin, GST–3C protease cleavage, gel filtration); not shown: GST, N-terminal, cleaved
